Assay [1] deals with T1, human α-PD-L1 Fc (Sino Biological, 10084-H02H, LC11NO2402) (human, UniProt Q9NZQ7 19-239).
T1 construct: also called Human PD-L1
Kind of assay: SPR, PD-L1 Fc immobilised, scFv as analyte, 1:1 Langmuir fit. Background: Surface plasmon resonance follows binding to a sensor surface in real time, without labels.

For assay [2], the target named is pre-existing anti-drug antibodies (ADAs) in human sera. In words: ELISA, scFv coated, 5% human serum unspiked/spiked, anti-human IgG-HRP.
The target in assay [3] is T2, human α-Mesothelin (Acro Biosystems; MSN_H5223) (human, UniProt Q13421 296-580, limits assumed).
T2 construct: also called Human MSLN; MSLN
T2 sequence (Q13421 other isoform, or with tags, fused parts or gaps limits assumed): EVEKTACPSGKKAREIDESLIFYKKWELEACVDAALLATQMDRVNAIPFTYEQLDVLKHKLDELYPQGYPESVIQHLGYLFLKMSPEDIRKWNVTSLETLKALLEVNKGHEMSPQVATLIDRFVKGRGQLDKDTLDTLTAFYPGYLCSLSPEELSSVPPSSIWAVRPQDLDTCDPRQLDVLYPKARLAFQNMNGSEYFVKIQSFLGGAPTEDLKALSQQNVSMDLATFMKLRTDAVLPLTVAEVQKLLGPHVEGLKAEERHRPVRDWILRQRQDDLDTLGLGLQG
Kind of assay: SPR, MSLN immobilised, scFv as analyte, 1:1 Langmuir fit.

T1 sequence (Q9NZQ7 19-239 limits assumed): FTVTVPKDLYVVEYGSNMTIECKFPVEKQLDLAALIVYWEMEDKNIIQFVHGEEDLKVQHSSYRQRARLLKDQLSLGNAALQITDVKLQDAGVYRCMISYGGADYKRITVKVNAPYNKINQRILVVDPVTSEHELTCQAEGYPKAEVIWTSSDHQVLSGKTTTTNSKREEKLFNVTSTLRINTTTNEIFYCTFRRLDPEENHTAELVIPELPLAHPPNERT

B1: scFv 37-20-B03-sc09.1 PRO2230 (scFv)
scFv: DIQMTQSPASLSASVGDRVTITCQASQSIGTYLAWYQQKPGKPPKLLIYRAFILASGVPSRFSGSGSGTDFTLTISSLQPEDFATYYCQSNFYSDSTTIGPNAFGTGTKVTVLGGGGGSGGGGSGGGGSGGGGSEVQLVESGGGLVQPGGSLRLSCAASGFSFNSDYWIYWVRQAPGKGLEWIASIYGGSSGNTQYASWAQGRFTISRDNSKNTVYLQMNSLRAEDTAVYFCARGYVDYGGATDLWGQGTLVTVSS
notes: also called PRO2330; PRO2230 wt
As a reminder, the Kd is the equilibrium constant for the complex coming apart. Lower therefore signals higher affinity. In assay [1], B1 had a Kd of 1.5 nM. In assay [2], this molecule displayed a No of positive serum samples above 30 % CCP (positive sera of 20) of 6 and a No of screening positive serum samples above 30 % Inhibition (positive sera of 20) of 18.

B2: scFv 54-21-H03-sc01 (PRO1922) (scFv)
scFv: DIQMTQSPSSLSASVGDRVTITCQASESIYSSLAWYQQKPGKAPKLLIYLASTLASGVPSRFSGSGSGTDFTLTISSLQPEDFATYYCQSTDYTTSTHRNSFGTGTKVTVLGGGGGSGGGGSGGGGSGGGGSEVQLVESGGGLVQPGGSLRLSCAASGFSFSTTYYMCWVRQAPGKGLEWIGCTNTASSVRTYYATWAKGRFTISRDNSKNTVYLQMNSLRAEDTAVYYCARDMGFADYALNLWGQGTLVTVSS
notes: also called PRO1992; PRO1922 wt
Consider B2, for which the Kd in assay [3] came out at 1.8 nM. For the same molecule, in assay [2], the No of positive serum samples above 30 % CCP (positive sera of 20) came out at 10 and the No of screening positive serum samples above 30 % Inhibition (positive sera of 20) came out at 16.

The values are drawn from patent publication EP4273162A1 (Numab Therapeutics AG, dated 2023).
